Drawing on patent publication US20230107034A1, this text covers koff for two substances.

Read-outs that look alike come from different tables or passages of the source.

Common to all, as to test: SPR
Assay [1] has as its target Ab 1-42 (UniProt P05067).
In assay [2] the target is Ab 1-42 (UniProt P05067). This is another data set of the same source.
In the next assay the target is monomer (UniProt P05067).
For a further assay, the target named is PFs (AB 1-42 proto) (UniProt P05067).
PFs (AB 1-42 proto), sequence (P05067 672-713): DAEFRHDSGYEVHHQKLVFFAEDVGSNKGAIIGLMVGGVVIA

Ab 1-42, sequence (P05067 672-713): as above
monomer, sequence (P05067 672-713): as above

Turning to BAPI, the dissociation rate constant (koff) amounted to 0.000505 s⁻¹ in the assay with Ab 1-42 [1] and 0.000426 s⁻¹ with Ab 1-42 [2].

Regarding Aducanumab, the dissociation rate constant (koff) amounted to 0.718 s⁻¹ with monomer and 0.000144 s⁻¹ in the assay with PFs (AB 1-42 proto).
